Experimental data: article PMC6208734
Values belong to the binder of their own block, whether it stands above or below them.

Experiments:
[1] = molecular target: AD-PHF Tau (paired helical filament Tau isolated from Alzheimer's disease brains) (human (endogenous in AD brain)); test: SPR; AD-PHF fraction 11 amine-coupled to a CM5 chip (about 500 RU); full-length IgG 1-300 nM as analyte, 180 s injection, 1200 s dissociation; BIAcore T200, 25 °C; HBS-EP+ with additional 150 mM NaCl and 1.25% CM-Dextran; extrinsic affinity; 1:1 binding or bivalent analyte model
Chain of AD-PHF Tau (paired helical filament Tau isolated from Alzheimer's disease brains) (human (endogenous in AD brain)) (P10636 2-758): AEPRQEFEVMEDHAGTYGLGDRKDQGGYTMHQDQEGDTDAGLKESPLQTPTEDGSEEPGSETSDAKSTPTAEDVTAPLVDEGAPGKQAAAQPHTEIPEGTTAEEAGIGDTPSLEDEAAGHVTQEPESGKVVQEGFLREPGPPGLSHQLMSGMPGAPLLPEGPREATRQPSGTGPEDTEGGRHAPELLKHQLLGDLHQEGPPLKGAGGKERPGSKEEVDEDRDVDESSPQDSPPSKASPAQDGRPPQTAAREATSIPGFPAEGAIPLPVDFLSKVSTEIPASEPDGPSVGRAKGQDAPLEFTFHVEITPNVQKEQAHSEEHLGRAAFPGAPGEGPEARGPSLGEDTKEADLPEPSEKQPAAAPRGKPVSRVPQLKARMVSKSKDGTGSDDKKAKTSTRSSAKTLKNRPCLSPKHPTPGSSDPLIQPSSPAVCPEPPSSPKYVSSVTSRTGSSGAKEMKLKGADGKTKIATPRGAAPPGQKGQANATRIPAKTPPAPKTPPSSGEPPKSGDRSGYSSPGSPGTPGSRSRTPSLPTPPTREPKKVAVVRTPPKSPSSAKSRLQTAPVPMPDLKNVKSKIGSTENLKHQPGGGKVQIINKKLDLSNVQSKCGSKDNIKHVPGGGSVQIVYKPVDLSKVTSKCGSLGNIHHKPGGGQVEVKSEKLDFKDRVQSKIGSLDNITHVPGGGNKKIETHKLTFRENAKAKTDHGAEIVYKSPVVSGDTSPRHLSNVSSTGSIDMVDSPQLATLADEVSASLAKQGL

[2] = molecular target: AD-PHF Tau (paired helical filament Tau isolated from Alzheimer's disease brains) (human (endogenous in AD brain))

Kd [1]: 3.1 nM
koff [1]: 0.000117 s⁻¹
kon [1]: 40000 M⁻¹ s⁻¹
neutralisation of AD-PHF Tau seeding of HEK293 cells expressing P301S Tau (TR-FRET of aggregated Tau), antibody 0.1 to 300 nM; effect only at the highest doses [2]: 74%
B1: antibody B (antibody, V domains shown)
VH: EVKVEESGGGLVQPGGSMKLSCVVSGFTFSNYWVNWVRQSPEKGLEWVAQIRLKSDNYATHYEESVKGRFTISRDDSKSSVYLQMNNLRAEDSGIYYCTNWEDYWGQGTTLTVSS
VL: DIVLTQSPASLAVSLGQRATISCRASQSVSTSRYSYIHWYQQKPGQPPKLLIKYASNLESGVPARFSGSGSGTDFTLNIHPLEEEDAATYYCHHSWEIPLTFGAGTKLELK

Kd [1]: 25.8 nM
koff [1]: 0.00196 s⁻¹
kon [1]: 730000 M⁻¹ s⁻¹
B2: antibody F (antibody, V domains shown)
VH: EVQLVQSGAEVKKPGESLKISCKGSGYTFSNYWIEWVRQMPGKGLEWMGEILPGSDSIKYEKNFKGQVTISADKSISTAYLQWSSLKASDTAMYYCARRGNYVDDWGQGTLVTVSS
VL: EIVLTQSPGTLSLSPGERATLSCRSSQSLVHSNQNTYLHWYQQKPGQAPRLLIYKVDNRFSGIPDRFSGSGSGTDFTLTISRLEPEDFAVYYCSQSTLVPLTFGGGTKVEIK

Kd [1]: 0.12 nM
koff [1]: 2.5e-05 s⁻¹
kon [1]: 230000 M⁻¹ s⁻¹
B3: antibody A (antibody, V domains shown)
VH: EVHLVESGGALVKPGGSLKLSCAASGFSFSKYGMSWVRQTPDKRLEWVATISSSGSRTYYPDSVKGQFTISRDNAKNTLYLQMSSLKSEDTAMYYCSISWDGAMDYWGQGTSVTVSS
VL: DVLMTQTPLSLPVSLGDQASISCKSSQSIVHSNGNTYLEWYLQKPGQSPKLLVYKVSNRFSGVPDRFSGSGSGTDFTLKISRVEAEDLGTYYCFQGSLVPWAFGGGTKLEIK
